Measurements reported in the supplement of paper PMC10567573.

B1: EDARADD (parent)
chain: VEKVLRRWVDEEWPKRERGDPSRH

Variants of: B1
Test: protein stability index of a GFP-peptide fusion (GPS, HEK-293T) (PSI 1-6); higher = more stable
Conditions: c terminus: a fixed tail appended
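Also: lentivirally expressed fusions sorted by FACS into six bins by GFP to DsRed ratio, PSI derived from sequencing read proportions per bin multiplied by bin number.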

Protein stability index: each site, then its substitutions
E17: L 2.7 | M 2.97 | N 2.84 | G 3.32 | W 1.83 | F 2.01 | Q 2.99 | T 2.45 | S 2.44 | H 3.27 | R 2.85 | V 1.96 | Y 2.55 | I 2.19 | P 1.68 | K 2.96 | C 2.26 | A 3.43 | D 3.53
G19: M 2.54 | C 2.52 | I 2.6 | D 3.1 | K 2.79 | L 2.37 | E 3.14 | N 2.41 | H 3.06 | F 2.05
R18: V 2.99 | I 3.12 | N 3.22 | H 3.18 | F 2.5 | K 1.81 | C 2.91 | A 2.29 | L 2.81 | P 3.34 | D 3.18 | Y 2.44 | W 2.64 | M 3.15 | E 3.73 | S 2.83 | G 3.58 | Q 3.53 | T 2.96
E2: M 1.96 | K 1.24 | H 2.37 | D 2.9 | Q 2.51 | L 1.39 | C 2.3 | Y 1.89 | W 2.05 | P 2.94 | F 1.45 | N 3.23 | A 2.61 | R 2.53 | I 1.72 | V 1.63 | S 2.46 | T 2.24
W8: F 3.34 | K 4.43 | D 4.56 | N 5.25 | Y 3.12 | E 4.22 | I 3.4 | R 4.13 | T 4.06 | C 4.03 | P 4.71 | Q 4.78 | S 4.97 | A 3.98 | M 3.69 | L 2.76 | G 4.8 | H 4.08
R7: S 3.46 | F 3.61 | G 3.98 | T 3.6 | M 2.69 | I 2.32 | D 4.05 | L 2.62 | W 2.49 | E 3.91 | P 3.9 | A 3.09 | H 3.56 | C 2.35 | V 3.43 | K 3.29 | Y 2.7 | Q 3.45 | N 4.48
V4: K 3.06 | E 4.41 | D 4.08 | C 2.62 | S 4.21 | N 4.2 | I 2.69 | M 2.67 | T 3.08 | W 3.53 | L 2.2 | Y 2.5 | F 1.97 | Q 2.76 | R 3.42 | A 2.89 | H 3.6 | P 3.71
R6: C 3.06 | G 3.12 | T 3.84 | P 5.27 | N 3.94 | Y 3.13 | M 3.14 | Q 3.79 | I 2.47 | W 3.38 | A 3.88 | L 2.57 | K 3.86 | E 3.72 | D 4.34 | S 3.6 | F 2.76
K15: W 1.71 | S 3.33 | Y 2.31 | N 2.25 | E 3.96 | D 3.17 | M 2.97 | Q 2.24 | F 2.74 | G 3.44 | H 3.55 | A 2.72 | R 2.42 | V 2.29 | T 3.51 | C 3.18 | P 3.58 | L 2.41 | I 2.82
E11: V 1.88 | K 2.08 | F 2.16 | S 2.71 | T 2.61 | I 2.7 | P 2.2 | G 3.1 | Y 2.09 | N 3.19 | R 1.59 | Q 3.05 | W 1.96 | C 2.43 | H 2.44 | M 1.74 | D 3.28 | A 2.73
D10: K 2.4 | G 3.39 | P 3.4 | Y 2.59 | L 3.29 | I 2.65 | Q 2.73 | A 2.53 | C 2.69 | H 2.44 | S 3.4 | V 2.47 | N 2.71 | M 2.26 | R 2.62 | F 2.81 | T 2.74 | W 2.88
K3: E 3.55 | A 2.78 | D 4.38 | I 1.25 | C 3.38 | F 2.21 | Y 2.77 | T 2.14 | N 3.26 | G 4.05 | L 2.41 | H 5.03 | V 2.09 | Q 2.85 | S 3.01 | W 1.36 | P 3.8
P14: G 2.22 | L 2.13 | T 2.49 | M 2.62 | S 2.59 | Y 2.32 | C 3.5 | F 2.14 | A 2.31 | R 3.06 | E 2.05 | D 2.39 | K 2.82 | W 2.38 | V 2.92 | N 2.8
V9: Q 3.31 | P 3.51 | I 2.38 | E 4.17 | M 3.17 | T 3.72 | G 3.83 | A 3.57 | R 3.48 | D 4.36 | S 4.07 | H 3.46 | F 2.55 | C 2.72 | W 3.05 | K 2.9 | N 3.59 | Y 3.1
R16: M 2.7 | S 2.58 | F 2.46 | C 2.67 | Y 2.14 | A 3.55 | T 3.46 | K 2.48 | V 2.49 | L 2.69 | Q 2.1 | P 3 | D 2.83 | I 3.77 | N 3.62 | E 3.66
V1: A 4.29 | E 4.19 | R 4.16 | T 2.91 | I 2.2 | S 2.39 | N 3.91 | Y 2.56 | F 1.98 | C 2.77 | Q 2.65 | W 2.28 | M 2.95 | H 3.42 | K 2.85 | P 3.94 | D 4.36 | L 2.19 | G 3.61
E12: R 3.4 | G 2.81 | Y 1.81 | Q 1.95 | W 1.54 | S 2.36 | D 2.45 | N 1.92 | C 2.28 | M 2.08 | K 2.66 | I 2.06 | H 1.99 | V 2.12 | F 1.78 | A 1.87 | P 2.4 | T 2.27
W13: R 3.96 | N 3.86 | Y 2.79 | E 3.75 | A 3.42 | G 4.24 | P 3.75 | F 2.01 | I 3.35 | H 4 | Q 3.94 | L 3.38 | M 2.62 | V 3.98 | C 3.21 | S 3.54 | T 3.38 | D 3
L5: N 3.94 | H 4.26 | I 2.96 | M 3.3 | T 3.98 | C 2.71 | K 2.96 | S 2.8 | W 2.98 | E 4.5 | R 1.99 | P 4.07 | F 3.25 | V 3.23 | A 4.3 | G 4.19 | Q 2.78 | D 4.57 | Y 2.34
